Assay results reported in patent publication US20200277392A1 (Hoffmann-La Roche, published 2020).

Assays:
Experiment in all cases: SPR ProteOn XPR36, biotinylated antigen captured on NLC chip, purified Fab as analyte, 1:1 Langmuir
[1] = molecular target: T1, GST huTnC fn5 A1234 fn6 B (human, biotinylated at the C-terminal Avi-tag)
T1 chain: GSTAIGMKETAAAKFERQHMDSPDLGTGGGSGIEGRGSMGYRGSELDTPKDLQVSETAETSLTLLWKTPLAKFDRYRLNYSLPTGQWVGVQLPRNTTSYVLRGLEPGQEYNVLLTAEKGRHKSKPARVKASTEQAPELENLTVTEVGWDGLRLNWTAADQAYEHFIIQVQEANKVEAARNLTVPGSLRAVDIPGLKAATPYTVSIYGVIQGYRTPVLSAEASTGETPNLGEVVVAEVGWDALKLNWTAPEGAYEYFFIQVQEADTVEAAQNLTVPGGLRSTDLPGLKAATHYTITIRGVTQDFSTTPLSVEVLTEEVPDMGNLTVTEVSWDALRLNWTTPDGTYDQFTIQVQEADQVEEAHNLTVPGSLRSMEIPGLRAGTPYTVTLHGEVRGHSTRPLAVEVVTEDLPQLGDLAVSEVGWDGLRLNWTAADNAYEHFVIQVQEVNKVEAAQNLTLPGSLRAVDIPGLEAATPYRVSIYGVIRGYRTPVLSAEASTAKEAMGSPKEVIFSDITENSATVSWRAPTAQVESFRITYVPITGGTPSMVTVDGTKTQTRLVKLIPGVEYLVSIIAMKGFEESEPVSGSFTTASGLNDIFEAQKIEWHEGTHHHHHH
Experimental: (§1) Immobilization of antigens (ligand): Recombinant antigens were diluted with PBST (10 mM phosphate, 150 mM sodium chloride pH 7.4, 0.005% Tween 20) to 10 μg/ml, then injected at 30 μl/minute in vertical orientation. Injection of analytes: For ‘one-shot kinetics’ measurements, injection direction was changed to horizontal orientation, two-fold dilution series of purified Fab were injected simultaneously along separate channels 1-5, with association times of 200 s, and dissociation times of 240 s, respectively. Buffer (PBST) was injected along the sixth channel to provide an “in-line” blank for referencing. Association rate constants (kₒₙ) and dissociation rate constants (koff) were calculated using a simple one-to-one Langmuir binding model in ProteOn Manager v3.1 software by simultaneously fitting the association and dissociation sensorgrams. The equilibrium dissociation constant (KD) was calculated as the ratio koff/kₒₙ.

[2] = molecular target: T2, huTnC A4 B (human, biotinylated at the C-terminal Avi-tag)
T2 chain: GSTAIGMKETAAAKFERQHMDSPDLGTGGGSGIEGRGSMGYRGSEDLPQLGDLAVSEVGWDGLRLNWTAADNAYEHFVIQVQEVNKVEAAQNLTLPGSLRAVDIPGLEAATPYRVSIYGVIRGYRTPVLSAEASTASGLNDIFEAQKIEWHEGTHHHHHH
Experimental: as §1

[3] = molecular target: T3, huTnC A1 B (human, biotinylated at the C-terminal Avi-tag)
T3 chain: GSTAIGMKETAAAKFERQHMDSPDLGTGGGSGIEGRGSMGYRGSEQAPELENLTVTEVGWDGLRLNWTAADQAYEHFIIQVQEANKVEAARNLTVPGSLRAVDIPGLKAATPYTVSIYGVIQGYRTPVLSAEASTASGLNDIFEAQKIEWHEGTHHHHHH
Experimental: as §1

[4] = molecular target: T4, GST huTnC fn5 A1234 BC fn6 B (human, UniProt P24821 984-1798, biotinylated at the C-terminal Avi-tag)
T4 construct: also called Human GST-fused TnC fn5 A1234 BC fn6
T4 sequence: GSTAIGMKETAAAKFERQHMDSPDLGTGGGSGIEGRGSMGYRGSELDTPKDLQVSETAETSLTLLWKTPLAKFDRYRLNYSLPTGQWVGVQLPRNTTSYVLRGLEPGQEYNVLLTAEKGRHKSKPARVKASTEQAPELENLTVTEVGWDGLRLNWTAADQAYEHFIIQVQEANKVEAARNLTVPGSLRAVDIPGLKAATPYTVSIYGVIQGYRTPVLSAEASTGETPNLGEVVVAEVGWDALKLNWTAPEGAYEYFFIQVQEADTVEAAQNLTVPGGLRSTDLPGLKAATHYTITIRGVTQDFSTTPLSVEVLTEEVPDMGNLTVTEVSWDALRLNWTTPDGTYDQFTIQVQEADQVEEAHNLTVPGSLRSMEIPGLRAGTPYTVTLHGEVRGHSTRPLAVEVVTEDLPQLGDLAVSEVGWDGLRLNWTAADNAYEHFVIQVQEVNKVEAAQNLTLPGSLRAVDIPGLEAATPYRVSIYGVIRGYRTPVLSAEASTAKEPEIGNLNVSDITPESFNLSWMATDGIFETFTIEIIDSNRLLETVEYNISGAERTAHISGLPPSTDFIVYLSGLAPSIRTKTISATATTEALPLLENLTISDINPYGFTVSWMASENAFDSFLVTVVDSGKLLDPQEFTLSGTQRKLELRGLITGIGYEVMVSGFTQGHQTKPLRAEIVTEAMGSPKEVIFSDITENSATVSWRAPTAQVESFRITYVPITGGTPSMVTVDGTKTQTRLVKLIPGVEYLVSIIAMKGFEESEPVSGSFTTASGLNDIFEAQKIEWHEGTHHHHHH
Experimental: as §1

[5] = molecular target: T5, GST huTnC fn5 mu A124 BC hu fn6 B (human fn5 and fn6, murine A124 BC)
T5 chain: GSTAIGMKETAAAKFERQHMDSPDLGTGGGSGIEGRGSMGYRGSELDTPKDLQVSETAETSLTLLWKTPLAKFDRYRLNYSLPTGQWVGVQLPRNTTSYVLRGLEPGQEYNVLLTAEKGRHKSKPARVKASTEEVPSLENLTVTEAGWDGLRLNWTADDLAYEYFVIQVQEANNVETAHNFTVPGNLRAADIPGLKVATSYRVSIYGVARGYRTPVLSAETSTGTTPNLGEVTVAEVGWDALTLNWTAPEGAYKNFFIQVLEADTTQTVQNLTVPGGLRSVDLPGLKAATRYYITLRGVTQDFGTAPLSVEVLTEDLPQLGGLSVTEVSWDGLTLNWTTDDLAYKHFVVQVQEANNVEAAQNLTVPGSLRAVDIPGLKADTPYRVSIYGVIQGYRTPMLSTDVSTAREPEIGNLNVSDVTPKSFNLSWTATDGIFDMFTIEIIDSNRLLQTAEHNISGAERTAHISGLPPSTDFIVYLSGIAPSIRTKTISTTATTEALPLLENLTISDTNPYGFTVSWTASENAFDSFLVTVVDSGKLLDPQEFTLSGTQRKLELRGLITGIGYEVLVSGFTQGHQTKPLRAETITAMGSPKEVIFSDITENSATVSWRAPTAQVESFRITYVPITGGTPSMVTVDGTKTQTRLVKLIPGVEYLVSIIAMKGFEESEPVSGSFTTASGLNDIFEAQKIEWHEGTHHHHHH
Experimental: as §1

B1: anti-TnC clone 18D4, purified Fab (Fab, V domains shown)
VH: QVQLVQSGAEVKKPGSSVKVSCKASGGTFSSYAISWVRQAPGQGLEWMGGIIPIFGTANYAQKFQGRVTITADKSTSTAYMELSSLRSEDTAVYYCAKGNFYGGLDYWGQGTTVTVSS
VL: DIQMTQSPSTLSASVGDRVTITCRASQSISSWLAWYQQKPGKAPKLLIYDASSLESGVPSRFSGSGSGTEFTLTISSLQPDDFATYYCQQNKKFPSGTFGQGTKVEIK
Question: How did the Kd [1] turn out when B1 was run?
Answer: The Kd was 5 nM.

Question: And the Kd [2]?
Answer: The Kd was 2 nM.

Question: And the Kd [3]?
Answer: Its Kd is 5.6 nM.

Question: What about the Kd [4] of the same binder?
Answer: The Kd was 4 nM.

Question: And the Kd [5]?
Answer: Its Kd is 11.2 nM.
